The source of these data is the RNAGym collection of RNA variant scans (doi:10.1093/molbev/msab373).

B1: Azoarcus group I ribozyme (parent)
chain: GUGCCUUGCGCCGGGAAACCACGCAAGGGAUGGUGUCAAAUUCGGCGAAACCUAAGCGCCCGCCCGGGCGUAUGGCAACGCCGAGCCAAGCUUCGGCGCCUGCGCCGAUGAAGGUGUAGAGACUAGACGGCACCCACCUAAGGCAAACGCUAUGGUGAAGGCAUAGUCCAGGGAGUGGCGAAAGUCACACAAACCGG

The variants in the data set derive from B1. As to the kind of experiment: reverse-splicing fitness (ratio to wild type); higher = more active; in vitro selection; Mg2+ level not given. The gist of the method: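 An in vitro group I ribozyme library with randomized positions was T7-transcribed and gel-purified. In triplicate, 10 pmol RNA in EPPS pH 7.5 was reacted with 50 pmoles of a 30-nt RNA substrate for 1 h at 37 °C across several added MgCl2 levels (1–48 mM), then stopped with EDTA. Products were reverse transcribed from a substrate-complementary primer, PCR-amplified and sequenced (HiSeq 4000). Fitness is a variant's read proportion after selection over that before, normalised to wild type.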
Turning to A111G A120C A145U C150U C169U U176C, the reverse-splicing fitness worked out at 0.051. For C82U A111G A120G A145U C150A U176G, the reverse-splicing fitness was found to be 0.00406. The value for C82A A111U A145G C150G C169A U176G was 0.0091.

Take C82A A111U A120G A145G C150A U176C: the reverse-splicing fitness worked out at 0.0209.

For C82A A111C A120G A145U C150A C169U U176A, the reverse-splicing fitness worked out at 0.017. Regarding A111G A120G A145C, the reverse-splicing fitness is 0.266. For A120U A145C C150G C169U the value was 0.0478; for C82U A111U A120C A145G C150A C169U U176A, 0.0148; for A111C A145C C150G C169G U176A, 0.00768.

In the case of C82U A111U A120C A145C C150A C169U U176C, the reverse-splicing fitness was determined as 0.0112.

In the case of C82G A120G C150U C169G, the reverse-splicing fitness was determined as 0.0318. The value for C82U A145C C150U C169U U176G was 0.00478. For C82G A111C A145C, the reverse-splicing fitness came to 0.29. The value for C82A A111U C150G C169U was 0.0101. On to C82A A120U A145C C169G U176A, for which the reverse-splicing fitness is 0.00227. For C82G A120U A145C C169A U176C the value was 0.00168; for C82U A111C A145U C150A C169U U176G, 0.00805; for C82A A120G A145U C150G C169U, 0.00862.

For the variant A111G A120G A145G C169U, the reverse-splicing fitness worked out at 0.252. For C82U A111U A120G A145G C150A U176C the value was 0.0166; for C82U A111C A120C A145C C150A C169G, 0.00647; for C82U A111G A120C A145G C150U C169U, 0.0127. In the case of A120U A145U C169U U176A, the reverse-splicing fitness came out at 0.0858. C82G A111G A120G A145G C150A C169U U176C: the reverse-splicing fitness was found to be 0.0177. Turning to A120U A145U C150U C169A U176A, the reverse-splicing fitness worked out at 0.00335. For C82G A111U A120C A145U C150U C169A U176G the value was 0.00636; for C82G A120G A145U C150U C169U U176A, 0.0201. For C82G A111C A120C A145G C150A C169U U176C, the reverse-splicing fitness was 0.0139. On to C82A A111U A120G C150A C169G U176A, for which the reverse-splicing fitness is 0.0215. For C82U A111C A120U A145G C150G C169G U176A the value was 0.00829; for C82A A111G A120U A145C C150G C169U, 0.00332; for A111C A120U A145U U176G, 0.0748. As for C82A A111G A120U C169G U176G, the reverse-splicing fitness is 0.00181.

On to A120C A145G C150G C169A U176A, for which the reverse-splicing fitness was 0.0131. For C82G A111U A120U A145U C150G C169A the value was 0.00362.

As for A145G C150U C169A U176A, the reverse-splicing fitness amounted to 0.0281. For A120U A145C C169U the value was 0.263. The value for C82G A120C A145C C150A U176G was 0.0054; that for C150G U176A was 0.219; that for C82G A111C A120G C169U U176A was 0.0181. The value for C82U A111C A120C A145C C150A C169U U176G was 0.00596; that for C82G A120C C150A U176C was 0.0287; that for C82G A111G A120U C150A C169U U176G was 0.00229. Turning to C82A A111G A145C C169U, the reverse-splicing fitness came to 0.0119. With C82G A111G A120G C169U U176G, the reverse-splicing fitness amounted to 0.00595. For C82U A111C C150A U176G the value was 0.00812. The value for A111C A120G A145U C150A C169U U176A was 0.0198; that for C82U A111G A145G C150G U176G was 0.00618. The value for C82A A111U A120U A145U C150A C169U U176C was 0.00277; that for A111G A145U C150G was 0.449. For the variant C82A A111G A120G A145C C150A C169A U176G, the reverse-splicing fitness came out at 0.00578.

Consider A111C A120U A145C C169G U176A, for which the reverse-splicing fitness is 0.00676. The value for C82U A111G A120U A145G U176C was 0.0172; that for C82A A120U A145G C169U was 0.0064; that for C82G A120U A145U C150U C169G U176A was 0.00248. For C82U A111U A120C C150A C169U the value was 0.0114. As for C82U A111U A145G C150G U176G, the reverse-splicing fitness came to 0.00676. The value for A111C A120G A145U U176G was 0.00568; that for A111G A145C C150U C169A U176G was 0.0059. Consider A111G A120G A145U C150U C169U U176G, for which the reverse-splicing fitness came out at 0.00675. Turning to C82G A111C A120U A145U C150G C169G, the reverse-splicing fitness came out at 0.00414. As for C82G A111U A120G A145U C169A U176A, the reverse-splicing fitness amounted to 0.0133.

Take A111U A120G A145C C150G C169G U176A: the reverse-splicing fitness turned out to be 0.00926. For the variant A111U A120U A145U C150U C169U U176A, the reverse-splicing fitness was determined as 0.00718.

Consider C82A A120U A145C C150U C169G U176A, for which the reverse-splicing fitness turned out to be 0.00237. For A111U A120U A145G C150U U176G the value was 0.0253; for C82U A111G A120G C150A, 0.00982; for C82U A120G C150G C169A, 0.00923. The value for C82G A111U A120C C150U was 0.0329; that for C82G A111C A145C C150U C169A U176G was 0.00839; that for A111U A120C A145U C150U C169G U176A was 0.0113.

Regarding C82U A111C A120G C150G C169U U176C, the reverse-splicing fitness was found to be 0.0121.

Regarding C82A A111C A145G C150U C169G, the reverse-splicing fitness was 0.00915.

As for C82G A111U A120C A145C C150G C169G U176G, the reverse-splicing fitness was 0.00606. C82G A111G A120G A145C C169A U176C: the reverse-splicing fitness amounted to 0.0114. For C82U A111G C150G U176A, the reverse-splicing fitness amounted to 0.00888.

Take C82U A111G A145U C150A C169A U176C: the reverse-splicing fitness is 0.00854. The value for C82U A120C C150G C169A was 0.00883; that for C82A A111U A145G C169A was 0.0104; that for A111G A120C C150G C169G was 0.0068. The value for A111C A120C A145C U176C was 0.197; that for C82G A111C A120G A145C C150U was 0.00925. In the case of C82A A111G A120G A145C C150U C169G, the reverse-splicing fitness was determined as 0.00885. The value for A111G A120G A145U C150U C169G was 0.206.
